Results on two molecules are retold here after patent US7700353B2, “Compositions and methods for inducing apoptosis in tumor cells” (E-P Therapeutics, Inc., priority 1998, dated 2010).

Test [1] has as its system various human cancer cell lines. In words: Killing of cancer cells in vitro (% cell growth). The test is classed as cell-based. The settings on record: various amounts, about 48 hours. On the procedure: FIG. 20 depicts the effects of synthetic hEB-peptide on killing of various human cancer cells. About 1×10^6 cells of cancer cells were seeded in each well of a 96-well plate and various amounts of synthetic hEb-peptide were added as indicated. The cells were cultured for about 48 hours and the % of cell growth was determined.
About 1×10^6 cells of various human cancer cell lines were seeded in each well of a 96-well culture plate with various amounts of synthetic human Eb-peptide (shEb-peptide). It is specifically contemplated by the inventors that in any of the examples of the preferred embodiments described herein, synthetic or recombinant E domain peptides can be used. After incubation for about 48 hours, the growth of cells in each well was determined and compared to non-hEb-peptide controls.

The subject of test [2] is 293GP cells. The test can be described thus: Cell attachment assay. The settings on record: 0.8 μM, serum-free medium, four days, after shaking. The test is classed as cell-based, human. On the procedure: To confirm whether treatment of transformed cells with the Ea-4 peptide could result in increased attachment of the cells to the culture dish, 293GP cells were cultured in a serum-free basal medium supplemented with Ea-4-peptide (0.8 µM) or 10% FBS, respectively, in 6-well culture chambers. After four days, the culture medium was removed, and cells were rinsed twice with PBS containing 0.02% EDTA, fresh PBS was added, and the culture plates shaken 20 times manually.

Test [3] has as its system HT1080 cells. In words: Matrigel invasion assay. The test is classed as cell-based, human. The settings on record: for # invaded cells/view (MIC): Matrigel insert; for # invaded cells/view (MIC) / # invaded cells/view (CIC): 24 hours; for # invaded cells/view (CIC): control insert. Here is the method: Invasion assays were conducted in BIOCOAT MATRIGEL invasion chambers following the procedure provided by Becton Dickinson Labware (Bedford, Mass.; 40480 and 40481 guidelines). According to these procedures, 1×10^6 of HT1080 cells in DMEM supplemented with 1.25% FBS, with Ea-4 peptide (0.17 µM and 0.34 µM), or the same amount of the control protein, were plated in each insert of the Matrigel or control invasion chambers. The inserts were placed in the respective chambers containing DMEM medium supplemented with 10% FBS, and the chambers were incubated at 37° C. under a humidified atmosphere of 5% CO2 for 24 hours. After removal of the non-invaded cells with cotton swabs, the invaded cells on the other side of the membranes were stained with the Diff-Quick T stain (Becton Dickinson Labware, Bedford, Mass.) and observed under an Olympic inverted microscope (magnification, 200×). Control proteins were prepared from E. coli cells carrying the expression plasmid without the Ea-4-peptide gene by the same purification method (Tian et al., 1999). The assay was repeated three times.

In test [4] the test system is ovarian cancer cells (SKOV-3). In words: Apoptosis observed under microscope. The class given is cell-based, human. Particulars: 0.1-3.4 μM, 4 hours. Here is the method:
FIG. 22 depicts apoptosis in ovarian cancer cells (SKOV) induced by various amounts of rtEa4-peptide. SKOV cells were treated with various amounts (0.1-3.4 μM) for 4 hours and observed under a microscope. Arrows indicate apoptotic cells.
Killing of cancer cells by E-peptide could be the consequence of apoptosis or necrosis. To differentiate these two possibilities, MDA-MB-231 (C) cells were grown in culture in the presence of about 1.5 μM of trout Ea4-peptide. After about two hours of incubation the cells were observed under a microscope. […] FIG. 22 presents the results of the effect of trout Ea4-peptide on induction of apoptosis in ovarian cancer cells (SKOV-3).

Test [5] relates to Caspase-3 mRNA in MDA-MB-231. In words: Induction of caspase-3 mRNA. The test is classed as cell-based, human. The text has this:
(§1) Induction of caspase-3 has been widely used as an indicator of cells undergoing apoptosis.

The subject of test [6] is Caspase-3 mRNA in OVCAR-3(B). The test can be described thus: Induction of caspase-3 mRNA. The class given is cell-based, human.
From the text: as §1

For test [7], the system named is Caspase-3 mRNA in SKOV-3(A). The test can be described thus: Induction of caspase-3 mRNA. The test is classed as cell-based, human.
From the text: as §1

B1: hEb: chemically synthesized human Eb peptide of pro-IGF-I, 77 amino acid residues (SEQ ID NO:1) (peptide, listed as Homo sapiens)
chain: RSVRAQRHTDMPKTQKYQPPSTNKNTKSQRRKGWPKTHPGGEQKEGTEASLQIRGKKKEQRREIGSRNAECRGKKGK
In the case of B1, the “killing of cancer cells” value in test [1] is reported as “different degrees of killing”.

B2: rtEa-4: recombinant Ea-4 peptide of rainbow trout pro-IGF-I, 74 amino acid residues (SEQ ID NO: 2) (protein)
chain: RSVRAQRHTDMPRTPKVSTAVQNVDRGTERRTAQHPDKTKTKKKPLSGHSHPSCKEVHQKNSSRGNTGGRNYRM
modifications: Oncorhynchus mykiss
With B2, in test [2], the “attachment of cells to the culture chamber” value is on record as “remained attached to the culture chamber”. The “% Invasion” value in test [3] (0.17 μM) is 19%; in test [3] (0.34 μM) it was 15%. Also, the “% Reduction of invasion” value in test [3] (0.17 μM) amounted to 52%; in test [3] (0.34 μM), 62%. In addition, the “# invaded cells/view (MIC)” value was determined as 30 ± 5 cells/view in test [3] (0.17 μM) and 24 ± 1 cells/view in test [3] (0.34 μM). For the same molecule, the “# invaded cells/view (CIC)” value in test [3] (0.17 μM) and in test [3] (0.34 μM) was 157 ± 6 cells/view throughout. For the same molecule, the invasive activity result in test [3] (0.17 and 0.34 μM) was “dose-dependent reduction”. In test [4], the “apoptosis (microscopy)” value is given as “dose-dependent induction of apoptosis”. The “Caspase-3 mRNA” value in test [5] (0.04 μM) is 3.9 × 10^5 ± 3.8 × 10^4 molecules / μg total RNA; in test [5] (0.20 μM), 3.4 × 10^5 ± 3.1 × 10^4 molecules / μg total RNA; in test [5] (1.00 μM), 4.6 × 10^5 ± 9.5 × 10^4 molecules / μg total RNA; in test [5] (5.00 μM) it was 5.8 × 10^5 ± 1.3 × 10^4 molecules / μg total RNA; in test [6] (0.04 μM) it was 7.8 × 10^5 ± 7.9 × 10^4 molecules / μg total RNA; in test [6] (0.20 μM), 9.9 × 10^5 ± 2.0 × 10^4 molecules / μg total RNA. In addition, the “Caspase-3 mRNA” value was 1.9 × 10^5 ± 3.4 × 10^4 molecules / μg total RNA in test [6] (1.00 μM); 1.0 × 10^5 ± 1.4 × 10^4 molecules / μg total RNA in test [6] (5.00 μM); 3.0 × 10^5 ± # molecules / μg total RNA in test [7] (0.04 μM); 2.5 × 10^5 ± # molecules / μg total RNA in test [7] (0.20 μM); 3.7 × 10^5 ± # molecules / μg total RNA in test [7] (1.00 μM); 2.2 × 10^5 ± # molecules / μg total RNA in test [7] (5.00 μM).
